Results: publication PMC4457826 (PLoS Pathogens, 2015)

Tests used:
USP7-CTD = target: T1, USP7-CTD (Homo sapiens, UniProt Q93009); test: GST pull-down, USP7-CTD; type: binding; conditions: GST pull-down; GST-ICP0 594–775, GST-GMPS and GST-UHRF1 peptides and mutants; Fig 3H, 4C-F
T1 construct: USP7-CTD (535–1102); His tag (inferred from nickel-NTA purification; vector p15TV-L); made in house; host or cells: E. coli BL21(DE3)mgk
Experimental: (§1) Fragments representing USP7-CTD Ubl domains were prepared using ligation independent cloning with In-Fusion (Clontech) in p15TV-L. The boundaries of the Ubl domain constructs are Ubl12 (535–776), Ubl123 (535–889), Ubl345 (776–1102), Ubl45 (886–1102) and USP7-CTD (535–1102). Plasmids expressing USP7-NTD, USP7, and myc-USP7 WT (pCANmycUSP7) were described previously. USP7 mutants E759A, D762A, D764A and D762A/D764A in Ubl123 were synthesized (Genscript) and inserted into the pET15b plasmid. USP7 mutants E759A, D762A, D764A, D762A/D764A and D762R/D764R in USP7-CTD were prepared by ACGT Corporation. The D762R/D764R mutant was then sub-cloned into wild-type pCANmycUSP7 for co-IP assays. The mammalian ICP0 expression construct pCI-110 ICP0 was obtained from Roger Everett.
(§2) The ICP0, GMPS and UHRF1 WT and mutant peptides were cloned into pGEX-2TK and expressed in E. coli BL21(DE3). GST-ICP0 594–775 was obtained from Roger Everett. The GST-ICP0 or GST-GMPS or GST-UHRF1 or GST-ICP0 594–775 cell pellets from 500 ml of LB broth were re-suspended with PBS and lysed using sonication. The cleared lysates were applied to 500 μl of equilibrated glutathione-sepharose beads and incubated with rocking for 60 min at 4°C. Unbound proteins were removed by washing with PBS. Bound proteins were eluted with 50 mM Tris pH 8.0 and 100 mM NaCL containing 30 mM reduced glutathione. […]

[1] = system: USP7-CTD mutant D762R/D764R; test: GST pull-down, USP7-CTD D762R/D764R; type: binding, human
Experimental: as §1, §2

T1 sequence (Q93009 535-1102): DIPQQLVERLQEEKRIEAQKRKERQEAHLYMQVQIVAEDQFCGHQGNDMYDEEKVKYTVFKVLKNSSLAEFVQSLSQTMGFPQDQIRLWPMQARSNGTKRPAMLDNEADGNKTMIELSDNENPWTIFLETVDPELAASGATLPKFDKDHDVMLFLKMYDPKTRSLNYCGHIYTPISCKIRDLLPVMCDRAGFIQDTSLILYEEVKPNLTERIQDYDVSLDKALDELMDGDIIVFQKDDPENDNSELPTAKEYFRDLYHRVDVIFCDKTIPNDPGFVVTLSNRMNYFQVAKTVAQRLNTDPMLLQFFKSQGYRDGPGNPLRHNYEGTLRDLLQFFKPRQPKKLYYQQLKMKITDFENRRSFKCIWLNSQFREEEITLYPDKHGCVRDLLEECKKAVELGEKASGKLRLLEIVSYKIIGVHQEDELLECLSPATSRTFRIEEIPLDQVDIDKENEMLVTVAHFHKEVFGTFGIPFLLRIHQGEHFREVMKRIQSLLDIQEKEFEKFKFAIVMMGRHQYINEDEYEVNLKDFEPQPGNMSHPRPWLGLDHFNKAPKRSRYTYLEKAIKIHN

B1: GST-ICP0 594–775: longer ICP0 peptide corresponding to residues 594–775 (protein)
chain: AVGALGGRQEETSLGPRAASGPRGPRKCARKTRHAETSGAVPAGGLTRYLPISGVSSVVALSPYVNKTITGDCLPILDMETGNIGAYVVLVDQTGNMATRLRAAVPGWSRRTLLPETAGNHVMPPEYPTAPASEWNSLWMTPVGNMLFDQGTLVGALDFRSLRSRHPWSGEQGASTRDEGKQ
modifications: left off: GST, end not stated, kept
USP7-CTD
  Binding to WT USP7-CTD: interaction was observed
[1]
  Binding to USP7-CTD mutant D762R/D764R: not D762R/D764R USP7-CTD
